Laboratory results from patent publication US20190367612A1 (Daiichi Sankyo, published 2019).
Substitutions are numbered along the chain they refer to.

B1: humanized anti-GPRC5D antibody h7B4_H3/L2 (antibody, human IgG1, kappa)
heavy: not shown
light: DIQMTQSPSSLSLSPGERATLSCKASQNINKYLDWYQQKPGQPPRLLIYNTNNLHTGIPDRFSGSGSGTDYTLTISRLEPEDFAVYYCLQRNSWYTFGQGTKVEIKRTVAAPSVFIFPPSDEQLKSGTASVVCLLNNFYPREAKVQWKVDNALQSGNSQESVTEQDSKDSTYSLSSTLTLSKADYEKHKVYACEVTHQGLSSPVTKSFNRGEC
notes: Human IgG1 / kappa
B2: humanized anti-GPRC5D antibody h7B4_H1/L2 (antibody, human IgG1, kappa)
heavy: not shown
light: B1 light
notes: Human IgG1 / kappa
B3: anti-GPRC5D-anti-CD3 bispecific molecule C3048-C3E7036 (bispecific antibody)
scFv: GQVQLVQSGAEVKKPGSSVKVSCKASGGTFSRYAISWVRQAPGQGLEWMGGIIPIFGTANYAQKFQGRVTITADQSTRTAYMDLGRLRSEDTAVYYCALEGFRDSLKRNPFDIWGQGTMVTVSSGGGGSGGGGSGGGGSQSVVTQPPSVSAAPGQKVTISCSGGTTNIGSNYVSWYQQLPGTAPKFLMYENNKRPSGIPDRFSGSKSGTSATLAITGLQTGDEATYYCSTWDSSLNTGLFGGGTKLTVLGGGGSEVQLVESGGGLVQPGGSLRLSCAASGVTFNYYGMSWIRQAPGKGLEWVASITNSGGRIYYPDSVKGRFTISRENTQKTLYLQMNSLRAEDTAVYYCTLDGRDGWVAYWGQGTLVTVSSGGGGSGGGGSGGGGSNFMLTQPSSVSGVPGQRVTISCTGNTGNIGSNYVNWYQQLPGTAPKLLIYRDDKRPSGVPDRFSGSKSGTSASLAITGFQAEDEADYYCQSYSSGFIFGGGTKLTVLGAAAGAGGDYKDDDDKGAAAHHHHHH
notes: Tandem scFv
B4: anti-GPRC5D-anti-CD3 bispecific molecule C3048-C3E7035 (bispecific antibody)
scFv: GQVQLVQSGAEVKKPGSSVKVSCKASGGTFSRYAISWVRQAPGQGLEWMGGIIPIFGTANYAQKFQGRVTITADQSTRTAYMDLGRLRSEDTAVYYCALEGFRDSLKRNPFDIWGQGTMVTVSSGGGGSGGGGSGGGGSQSVVTQPPSVSAAPGQKVTISCSGGTTNIGSNYVSWYQQLPGTAPKFLMYENNKRPSGIPDRFSGSKSGTSATLAITGLQTGDEATYYCSTWDSSLNTGLFGGGTKLTVLGGGGSEVQLVESGGGLVQPGGSLRLSCAASGVTFNYYGMSWIRQAPGKGLEWVASITNSGGRIYYPDSVKGRFTISRENTQKTLYLQMNSLRAEDTAVYYCTLDGRDGWVAYWGQGTLVTVSSGGGGSGGGGSGGGGSMAQAVLTQPSSVSGVPGQRVTISCKRNTGNIGSNYVNWYQQLPGTAPKLLIYRDDKRPSGVPDRFSGSKSGTSASLAITGFQAEDEADYYCQSYSSGFIFGGGTKLTVLGAAAGAGGDYKDDDDKGAAAHHHHHH
notes: Tandem scFv
B5: anti-GPRC5D-anti-CD3 bispecific molecule C3022-C3E7035 (bispecific antibody)
scFv: GQVQLVQSGAEVKKPGASVKVSCKASGYTFTGYYMHWVRQAPGQGLEWMGRINPNSGGTNYAQKFQGRVTMTRDTSISTAYMELSGLRSDDTAVYYCASGSVRHPWGQGTLVTVSSGGGGSGGGGSGGGGSQPVLTQPPSASGTPGQRVTISCSGSRSNIGGNIVSWYQQFPGTAPRLLTYADNQRPSGVPDRFSGSKSGTSASLAISGLQSEDEADYYCAAWDDSLNGVVFGGGTKLTVLGGGGSEVQLVESGGGLVQPGGSLRLSCAASGVTFNYYGMSWIRQAPGKGLEWVASITNSGGRIYYPDSVKGRFTISRENTQKTLYLQMNSLRAEDTAVYYCTLDGRDGWVAYWGQGTLVTVSSGGGGSGGGGSGGGGSMAQAVLTQPSSVSGVPGQRVTISCKRNTGNIGSNYVNWYQQLPGTAPKLLIYRDDKRPSGVPDRFSGSKSGTSASLAITGFQAEDEADYYCQSYSSGFIFGGGTKLTVLGAAAGAGGDYKDDDDKGAAAHHHHHH
notes: Tandem scFv
B6: anti-GPRC5D-anti-CD3 bispecific molecule C3022-C3E7036 (bispecific antibody)
scFv: GQVQLVQSGAEVKKPGASVKVSCKASGYTFTGYYMHWVRQAPGQGLEWMGRINPNSGGTNYAQKFQGRVTMTRDTSISTAYMELSGLRSDDTAVYYCASGSVRHPWGQGTLVTVSSGGGGSGGGGSGGGGSQPVLTQPPSASGTPGQRVTISCSGSRSNIGGNIVSWYQQFPGTAPRLLTYADNQRPSGVPDRFSGSKSGTSASLAISGLQSEDEADYYCAAWDDSLNGVVFGGGTKLTVLGGGGSEVQLVESGGGLVQPGGSLRLSCAASGVTFNYYGMSWIRQAPGKGLEWVASITNSGGRIYYPDSVKGRFTISRENTQKTLYLQMNSLRAEDTAVYYCTLDGRDGWVAYWGQGTLVTVSSGGGGSGGGGSGGGGSNFMLTQPSSVSGVPGQRVTISCTGNTGNIGSNYVNWYQQLPGTAPKLLIYRDDKRPSGVPDRFSGSKSGTSASLAITGFQAEDEADYYCQSYSSGFIFGGGTKLTVLGAAAGAGGDYKDDDDKGAAAHHHHHH
notes: Tandem scFv
B7: humanized anti-GPRC5D antibody h2B1_H4/L5 (antibody, human IgG1, kappa, V domains shown)
VH: QVTLKESGPALVKPTQTLTLTCTFSGFSLNTYDMGVGWIRQPPGKGLEWLANIWWDDDKYYSPSLKSRLTITKDTSNNQAVLTMTNMDPVDTATYYCARIETVRVSRKGFAHWGQGTLVTVSS
VL: ATRMTQSPSSFSASTGDRVTITCKASQSVGINVDWYQQKPGKSPKLLIYGASNRHTGVPSRFSGSGFGRDFTLTISSLQSEDFATYYCLQHGSIPPTFGGGTKVEIKR
notes: Human IgG1 / kappa
B8: humanized anti-GPRC5D antibody h2B1_H2/L3 (antibody, human IgG1, kappa, V domains shown)
VH: QVQLVESGGGLVKPSQTLSLTCTFSGFSLNTYDMGVGWIRQPPGKGLEWIGNIWWDDDKYYNPSLKSRVTISKDTSNNQASLKLSSVTAADTAVYYCARIETVRVSRKGFAHWGQGTLVTVSS
VL: DTVMTQSPDSLAVSLGERATINCKASQSVGINVDWYQQKPGQPPKLLIYGASNRHTGVPDRFSGSGFGRDFTLTISSLQAEDVAVYYCLQHGSIPPTFGQGTKVEIKR
notes: Human IgG1 / kappa
B9: humanized anti-GPRC5D antibody h2B1_H2/L5 (antibody, human IgG1, kappa, V domains shown)
VH: B8 VH
VL: B7 VL
notes: Human IgG1 / kappa
B10: humanized anti-GPRC5D antibody h2B1_H4/L3 (antibody, human IgG1, kappa, V domains shown)
VH: B7 VH
VL: B8 VL
notes: Human IgG1 / kappa
B11: humanized anti-GPRC5D antibody h2B1_H3/L3 (antibody, human IgG1, kappa, V domains shown)
VH: B8 VH with G51A
VL: B8 VL
notes: Human IgG1 / kappa
B12: humanized anti-GPRC5D antibody h2B1_H3/L4 (antibody, human IgG1, kappa, V domains shown)
VH: B8 VH with G51A
VL: B8 VL with P43S
notes: Human IgG1 / kappa
B13: humanized anti-GPRC5D antibody h2B1_H3/L5 (antibody, human IgG1, kappa, V domains shown)
VH: B8 VH with G51A
VL: B7 VL
notes: Human IgG1 / kappa
B14: humanized anti-GPRC5D antibody h2B1_H4/L1 (antibody, human IgG1, kappa, V domains shown)
VH: B7 VH
VL: B8 VL with F67S
notes: Human IgG1 / kappa
B15: humanized anti-GPRC5D antibody h2B1_H2/L4 (antibody, human IgG1, kappa, V domains shown)
VH: B8 VH
VL: B8 VL with P43S
notes: Human IgG1 / kappa
B16: humanized anti-GPRC5D antibody h2B1_H2/L2 (antibody, human IgG1, kappa, V domains shown)
VH: B8 VH
VL: B8 VL with R69T
notes: Human IgG1 / kappa
B17: humanized anti-GPRC5D antibody h2B1_H1/L1 (antibody, human IgG1, kappa, V domains shown)
VH: B8 VH with K73V, N77K
VL: B8 VL with F67S
notes: Human IgG1 / kappa
B18: humanized anti-GPRC5D antibody h2B1_H4/L4 (antibody, human IgG1, kappa, V domains shown)
VH: B7 VH
VL: B8 VL with P43S
notes: Human IgG1 / kappa

The binders below were run against T1, cynomolgus monkey GPRC5D (cynomolgus monkey) (assay: flow cytometry on KMS-11_cGPRC5D cells (cynomolgus monkey GPRC5D), PE anti-human IgG Fc detection, rMFI = MFI minus isotype control).
T1 construct: whole, on cells; Stably expressed on KMS-11 cells (KMS-11_cGPRC5D); also called cGPRC5D

EC50 (read off the curve) | Binder
~2 nM | B1
~3 nM | B2

The binders below were run against T2, human GPRC5D (human, UniProt Q9NZD1 1-345) (assay: flow cytometry on A4/Fuk cells (endogenous human GPRC5D), Penta-His Alexa Fluor 488 detection, rMFI = MFI minus sample without antibody).
T2 construct: whole, on cells; also called hGPRC5D; G-protein coupled receptor family C group 5 member D
T2 sequence (Q9NZD1 whole entry): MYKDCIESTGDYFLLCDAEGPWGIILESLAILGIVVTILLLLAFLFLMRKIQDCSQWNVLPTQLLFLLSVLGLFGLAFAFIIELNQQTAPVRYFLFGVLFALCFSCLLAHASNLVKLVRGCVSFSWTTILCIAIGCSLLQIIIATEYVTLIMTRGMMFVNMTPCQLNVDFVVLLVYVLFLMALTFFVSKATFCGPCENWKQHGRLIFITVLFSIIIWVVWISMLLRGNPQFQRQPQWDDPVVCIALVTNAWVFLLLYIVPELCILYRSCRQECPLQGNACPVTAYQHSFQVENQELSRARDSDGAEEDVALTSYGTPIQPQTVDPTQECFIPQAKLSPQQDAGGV
Experimental: Lymphoma cell line A4/Fuk cells (JCRB Cell Bank) were adjusted to an appropriate concentration with PBS containing 5% FBS. LIVE/DEAD Fixable Near-IR Dead Cell Stain Kit was added to the cells, which were then left standing at 4° C. for 30 minutes. The cells were washed twice with PBS containing 5% FBS, then adjusted to a concentration of 1×10⁶ cells/mL with PBS containing 5% FBS, inoculated in an amount of 100 μL/well to a 96-well U-bottomed microplate, and centrifuged to remove a supernatant. Each anti-GPRC5D-anti-CD3 bispecific molecule (C2037-C3E7034 to C3022-C3E7036 prepared in Example 12) diluted with PBS containing 5% FBS were added thereto in an amount of 100 μL/well, and the plate was left standing at 4° C. for 60 minutes. The cells were washed twice with PBS containing 5% FBS. Then, Penta-His Alexa Fluor 488 diluted with PBS containing 5% FBS was added thereto in an amount of 30 μL/well, and the plate was left standing at 4° C. for 30 minutes. The cells were washed twice with PBS containing 5% FBS and then resuspended in PBS containing 5% FBS, followed by detection using a flow cytometer (FACSCanto™ II). The data was analyzed using Flowjo. The mean fluorescence intensity (MFI) of Alexa Fluor 488 in a fraction free from dead cells was calculated. The MFI value of the antibody-unsupplemented sample was subtracted from the MFI value of the antibody-supplemented sample to calculate a relative value of MFI (rMFI).

binding result | Binder
binds | B3
binds | B4
binds | B5
binds | B6

What follows are binders tested against T2, human GPRC5D (assay: flow cytometry on KHM-1B cells (human GPRC5D), culture supernatant, PE anti-human IgG Fc, rMFI over human IgG isotype control).
Experimental: Human multiple myeloma cell line KHM-1B cells expressing GPRC5D were adjusted to a concentration of 2×10⁶ cells/mL with PBS containing 5% FBS, inoculated in an amount of 100 μL/well to a 96-well U-bottomed microplate, and centrifuged to remove a supernatant. The culture supernatant of each humanized anti-GPRC5D antibody obtained in Example 8)-3-1 or Human IgG isotype control antibody (Calbiochem/Merck Millipore Corp.) adjusted to 14 ng/mL to 30 μg/mL was added thereto in an amount of 100 μL/well, and the plate was left standing at 4° C. for 1 hour. The cells were washed twice with PBS containing 5% FBS. Then, R-Phycoerythrin AffiniPure F(ab′)2 Fragment Goat Anti-Human IgG, Fcγ Fragment Specific (Jackson ImmunoResearch Laboratories, Inc.) diluted 100-fold with PBS containing 5% FBS was added thereto in an amount of 100 μL/well, and the plate was left standing at 4° C. for 1 hour. The cells were washed twice with PBS containing 5% FBS and then resuspended in PBS containing 5% FBS, followed by detection using a flow cytometer (FACSCanto™ II; Becton, Dickinson and Company). The data was analyzed using Flowjo (Tree Star, Inc.). The PE fluorescence intensity of the cell fraction was plotted to a histogram, and the mean fluorescence intensity (MFI) was calculated. The MFI value of the control antibody was subtracted from the MFI value of the GPRC5D antibody to calculate a relative value of MFI (rMFI).

binding result | Binder
binds | B7
binds | B1
binds | B2
binds | B8
binds | B9
binds | B10
binds | B11
binds | B12
binds | B13
binds | B14
binds | B15
binds | B16
binds | B17
binds | B18
